Laboratory results from US20230399394A1 (SUNSHINE GUOJIAN PHARMACEUTICAL SHANGHAI, published 2023).
Substitutions are numbered along the chain they refer to. Blank lines part the entries; values can stand above or below the binder they belong to.

Key:
[1] = target: T1, Pep2 (human, N-terminal biotin); assay: ELISA, biotinylated peptide on streptavidin plate, antibody 10 µg/mL, well 1
T1 construct: Synthetic 20-mer of human IL-33
T1 peptide: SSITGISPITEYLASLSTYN
Protocol: (§1) To determine the binding activity of antibody to each polypeptide fragment, the ELISA plate was pre-coated by biotin-avidin (SA) which was diluted in coating solution (50 mM carbonate coating buffer, pH 9.6) to 2 μg/ml at 4° C. overnight. The plate was washed with PBST for 3 times, and then blocked with 2% BSA prepared in PBS at room temperature for 2 h with 200 μL/well. The plate was washed once with PBST, and 864F3 and 874F7 with final concentrations of 10 μg/mL were added at 100 μL/well, respectively, and the plate was incubated at room temperature for 1 h. The plate was washed with PBST for 3 times, and the goat anti-mouse IgG labeled by HRP was added and placed at 37° C. for 30 min. After washing the plate with PBST for 3 times, the plate was patted on the absorbent paper to remove residual droplets as far as possible. 100 μl TMB developing solution was added to each well, and the plate was placed at room temperature (20±5° C.) for 5 minutes away from light; 50 μl 2M H₂SO₄ terminating solution was added to each well to terminate the substrate reaction. OD values were read at 450 nm on the microplate reader to analyze the binding ability of the antibody to each polypeptide fragment. The experimental results are shown in […]

[2] = target: T2, Pep3 (human, N-terminal biotin); assay: as above
T2 construct: Synthetic 20-mer of human IL-33
T2 peptide: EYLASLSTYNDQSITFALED
Protocol: as §1

[3] = target: T3, Pep5 (human, N-terminal biotin); assay: as above
T3 construct: Synthetic 20-mer of human IL-33
T3 peptide: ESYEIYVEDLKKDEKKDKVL
Protocol: as §1

[4] = target: T4, Pep7 (human, N-terminal biotin); assay: as above
T4 construct: Synthetic 20-mer of human IL-33
T4 peptide: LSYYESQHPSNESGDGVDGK
Protocol: as §1

[5] = target: T5, Pep8 (human, N-terminal biotin); assay: as above
T5 construct: Synthetic 20-mer of human IL-33
T5 peptide: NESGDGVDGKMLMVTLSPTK
Protocol: as §1

[6] = target: T6, Pep9 (human, N-terminal biotin); assay: as above
T6 construct: Synthetic 20-mer of human IL-33
T6 peptide: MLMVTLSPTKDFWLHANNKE
Protocol: as §1

[7] = target: T7, Pep10 (human, N-terminal biotin); assay: as above
T7 construct: Synthetic 20-mer of human IL-33
T7 peptide: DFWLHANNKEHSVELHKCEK
Protocol: as §1

[8] = target: T8, Pep13 (human, N-terminal biotin); assay: as above
T8 construct: Synthetic 20-mer of human IL-33
T8 peptide: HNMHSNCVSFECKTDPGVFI
Protocol: as §1

[9] = target: T9, Pep15 (human, N-terminal biotin); assay: as above
T9 construct: Synthetic 20-mer of human IL-33
T9 peptide: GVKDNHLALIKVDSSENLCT
Protocol: as §1

[10] = target: T10, Pep16 (human, N-terminal biotin); assay: as above
T10 construct: Synthetic 20-mer of human IL-33
T10 peptide: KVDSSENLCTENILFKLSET
Protocol: as §1

[11] = target: T11, IL-33 protein without any mutation (WT) (human, UniProt O95760 112-270); assay: ELISA as Example 9; row WT-3
T11 construct: Control of the alanine scan (four runs WT-1 to WT-4); also called WT-1; WT-2
T11 sequence: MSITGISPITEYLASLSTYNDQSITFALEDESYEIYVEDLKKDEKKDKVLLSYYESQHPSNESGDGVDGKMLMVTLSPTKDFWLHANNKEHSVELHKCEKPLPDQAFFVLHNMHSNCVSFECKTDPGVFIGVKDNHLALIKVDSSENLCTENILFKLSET
Protocol: (§2) SA protein was diluted to 2 μg/mL to coat ELISA plate at 100 μL/well overnight at 4° C. The plate was washed with PBST (PBS containing 0.05% Tween20) for 3 times, and blocked with 2% BSA prepared in PBS at 200 μL/well, at room temperature for 2 h. After the plate was washed twice with PBST, IL-33-his-biotin protein was diluted to 1 μg/mL with 1% BSA prepared in PBST, and was added to ELISA plate at 100 μL/well. The plate was incubated at room temperature for 1 h, and each monoclonal antibody was diluted with 1% BSA prepared in PBST in a 3-fold gradient. The highest concentration of antibody was 10 μg/mL, and the antibody was diluted for 12 gradients. Each diluted monoclonal antibody was added to ELISA wells with 100 μL/well, and the plate was incubated at room temperature for 1 h. Each sample was added to duplicate wells in parallel. The plate was washed with PBST for 3 times, and HRP-anti human IgG Fc secondary antibody prepared with PBST was diluted at an appropriate ratio, and was added to ELISA wells at 100 μL/well. […] Each reaction solution was shaken uniformly and OD450 nm was read on a microplate reader. The data was analyzed and EC₅₀ was calculated.
(§3) Subsequently, according to the experimental method of Example 9, the affinity of the above mutant proteins to 874F7-Hu1 was determined, and IL-33 proteins (WT-1, WT-2, WT-3, and WT-4) without any mutation were set as controls.

[12] = target: T12, IL-33 mutant protein Y53A (human, UniProt O95760 112-270); assay: ELISA as Example 9; row Y53A
T12 construct: Prokaryotic expression
T12 chain: T11 sequence with Y53A
Protocol: as §2, §3

[13] = target: T13, IL-33 mutant protein N61A (human, UniProt O95760 112-270); assay: ELISA as Example 9; row N61A against WT-3
T13 chain: T11 sequence with N61A
Protocol: as §2, §3

[14] = target: T11, IL-33 protein without any mutation (WT); assay: ELISA as Example 9; row WT-3, the reference itself
Protocol: as §2, §3

OD450 [1]: 0.056 OD450
OD450 [2]: 0.053 OD450
OD450 [3]: 0.05 OD450
OD450 [4]: 0.055 OD450
OD450 [5]: 0.053 OD450
OD450 [6]: 0.065 OD450
OD450 [7]: 0.053 OD450
OD450 [8]: 0.054 OD450
OD450 [9]: 0.055 OD450
OD450 [10]: 0.049 OD450
B1: 874F7 (antibody, V domains shown)
VH: QVQLKESGPGLVAPSHSLSITCNVSGFSLSKYGVHWIRQIPGRGLDWLGVLRAGGSTGYNSALMSRLSISKDSSKSQVFLKMNDLRTDDTAVYFCVRDHYYYSSYGGFVYWGQGTLVTVSA
VL: DIQMTQSPASQSASLGESVTITCLASQTIGAWLAWYRQQPGKSPQLLIYAATRLADGVPSRFSGSGSGTEFSFKINNLQAEDFVSYYCQQLDSSPYTFGGGTRLEM
notes: Murine hybridoma antibody purified on Protein G; also called murine antibody 874F7

EC50 [11]: 0.18 nM
EC50 [12]: 0.44 nM
Affinity decline ratio [13]: 0.8 fold
Affinity decline ratio [14]: 1 fold
B2: 874F7-Hu1 (antibody, human IgG4 S228P, kappa)
heavy: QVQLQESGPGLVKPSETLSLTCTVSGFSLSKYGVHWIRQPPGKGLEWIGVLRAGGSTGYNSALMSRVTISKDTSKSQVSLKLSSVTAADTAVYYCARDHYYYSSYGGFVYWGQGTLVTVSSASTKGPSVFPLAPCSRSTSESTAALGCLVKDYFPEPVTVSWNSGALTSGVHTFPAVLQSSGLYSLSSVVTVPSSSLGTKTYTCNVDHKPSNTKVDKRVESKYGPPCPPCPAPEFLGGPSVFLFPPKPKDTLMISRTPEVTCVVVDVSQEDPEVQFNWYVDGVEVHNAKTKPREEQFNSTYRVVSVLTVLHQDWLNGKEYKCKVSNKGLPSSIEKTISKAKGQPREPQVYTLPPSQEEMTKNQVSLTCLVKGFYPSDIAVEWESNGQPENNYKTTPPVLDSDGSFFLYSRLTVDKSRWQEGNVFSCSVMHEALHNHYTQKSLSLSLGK
light: DIQMTQSPSSVSASVGDRVTITCLASQTIGAWLAWYQQKPGKSPKLLIYAATRLADGVPSRFSGSGSGTDFTLTISSLQPEDFATYYCQQLDSSPYTFGQGTKVEIKRTVAAPSVFIFPPSDEQLKSGTASVVCLLNNFYPREAKVQWKVDNALQSGNSQESVTEQDSKDSTYSLSSTLTLSKADYEKHKVYACEVTHQGLSSPVTKSFNRGEC
notes: also called 874F7-Hul; humanized antibody 874F7-Hu1
